Results published in article PMC5132341, “Malaria parasite CelTOS targets the inner leaflet of cell membranes for pore-dependent disruption” (eLife, 2016).

B1: Plasmodium falciparum cell-traversal protein for ookinetes and sporozoites (PfCelTOS), amino acids 25-182 (domain or fragment)
chain: FRGNNGHNSSSSLYNGSQFIEQLNNSFTSAFLESQSMNKIGDDLAETISNELVSVLQKNSPTFLESSFDIKSEVKKHAKSMLKELIKVGLPSFENLVAENVKPPKVDPATYGIIVPVLTSLFNKVETAVGAKVSDEIWNYNSPDVSESEESLSDDFFD
notes: CelTOS of Plasmodium falciparum, UniProtKB Q8I5P1, amino acids 25-182, codon-optimized gene; No cleavage of the hexahistidine tag is described; the same preparation is detected with an anti-His antibody in the lipid strip assay, so the tag was probably kept; also called Antigen 2; source: E. coli, purified (Nickel-NTA chromatography, gel filtration on Superdex 200)

How the values were obtained:
[1] = target: Plasmodium vivax cell-traversal protein for ookinetes and sporozoites (PvCelTOS), amino acids 36-196 (Plasmodium vivax); test: AUC; sedimentation equilibrium, 10°C, 150 mM NaCl, 10 mM HEPES pH 7.4, 12,000 and 15,000 rpm; PfCelTOS at 25, 36 and 46 µM, PvCelTOS at 29, 41 and 53 µM; single component model
[2] = target: the molecule itself; test: as above

Row | Molecule | stoichiometry N [1] | stoichiometry N [2]
1 | Plasmodium vivax cell-traversal protein for ookinetes and sporozoites (PvCelTOS), amino acids 36-196 (domain or fragment) | 2 | 
2 | B1 |  | 2
